Data: patent US20130018176A1, “METHODS OF PRODUCING HYBRIDOMAS AND MONOCLONAL ANTIBODIES AND ANTIBODIES PRODUCED THEREBY” (AMGEN INC., priority 2007, published 2013)

T1: Ferroportin expressed inducibly in 293 cells (Homo sapiens, UniProt Q9NP59)
T1 construct: expressed in transfected cells; host or cells: 293 cells, tetracycline/doxycycline-inducible
T1 sequence (Q9NP59 1-571): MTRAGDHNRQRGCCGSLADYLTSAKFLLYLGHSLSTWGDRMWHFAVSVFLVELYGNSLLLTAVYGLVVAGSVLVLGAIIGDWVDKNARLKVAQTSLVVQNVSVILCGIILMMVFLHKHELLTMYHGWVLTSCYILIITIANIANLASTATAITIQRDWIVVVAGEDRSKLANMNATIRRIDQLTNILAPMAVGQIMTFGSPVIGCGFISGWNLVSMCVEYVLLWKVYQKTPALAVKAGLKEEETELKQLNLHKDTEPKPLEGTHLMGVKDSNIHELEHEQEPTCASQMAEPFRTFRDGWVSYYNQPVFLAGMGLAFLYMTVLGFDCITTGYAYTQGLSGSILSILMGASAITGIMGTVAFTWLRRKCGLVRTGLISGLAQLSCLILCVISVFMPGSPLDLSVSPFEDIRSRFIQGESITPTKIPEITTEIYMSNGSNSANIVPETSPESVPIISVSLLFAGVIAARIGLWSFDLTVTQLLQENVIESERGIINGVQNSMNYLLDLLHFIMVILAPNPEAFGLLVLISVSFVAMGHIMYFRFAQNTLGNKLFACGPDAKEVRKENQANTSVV

T2: human hepcidin (Homo sapiens, UniProt P81172)
T2 construct: The pro-region of the protein was enzymatically cleaved by incubation with Kex protease; made in house; host or cells: E. coli
T2 sequence (P81172 60-84 limits assumed): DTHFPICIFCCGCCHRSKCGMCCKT

T3: E. coli-derived human hepcidin (Homo sapiens, UniProt P81172)
T3 construct: The pro-region of the protein was enzymatically cleaved by incubation with Kex protease; made in house; host or cells: E. coli
T3 sequence (P81172 60-84 limits assumed): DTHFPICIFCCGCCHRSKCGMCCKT


Key:
[1] = target: T1, Ferroportin expressed inducibly in 293 cells; test: In vitro hepcidin activity ferritin assay; type: cell-based; settings: 293 cells with tetracycline-inducible ferroportin; 1 μg/ml hepcidin; 17-20 hours
Method: Human hepcidin purified or produced according to Examples 1, 2, 3 and 4 was assayed for iron-regulating bioactivity in an in vitro cellular assay. […] The action of ferroportin can be reduced in a dose-dependent manner by hepcidin treatment.
293 cells expressing a tetracycline-inducible ferroportin gene were plated at 50,000 cells per well (70-80% density) in a 96 well BioCoat poly-D Lysine-coated plate in DMEM supplemented with 5% fetal bovine serum and a penicillin/streptomycin/glutamine supplement (Gibco BRL). After an overnight incubation at 37° C. with 5% CO2, the medium was replaced with assay medium (as above, but supplemented with 2.5 μg/ml doxycycline for […], 2.5 μg/ml iron citrate for iron supplemented wells and 1 μg/ml hepcidin for hepcidin treatment wells). The plate was further incubated for 17-20 hours as above before washing the wells in cold PBS and lysing in 120 ul of 1% Triton lysis buffer on ice for 15 minutes. 100 μl of lysates were used for ferritin analysis (Olympus AU400 clinical chemistry analyzer) and 10 μl for BCA protein assay (Pierce). Ferritin results were normalized for protein content.

human hepcidin = target: T2, human hepcidin; test: Neutralization of injected human hepcidin in mice (hypoferremic response); type: in vivo; settings: 25 μg i.p. with isotype control antibody; female C57BL/6 mice; two hours
Method: Activity of anti-human hepcidin antibodies was evaluated in vivo in mice that were administered human hepcidin in an amount sufficient to generate a hypoferremic response. On day 0, female C57BL/6 mice were injected subcutaneously with a murine monoclonal antibody (Ab2.7) directed against human hepcidin. Control mice received murine IgG1 as an isotypic control. At day 3, the mice received a single intraperitoneal injection of 25 μg E. coli-derived recombinant human Hepcidin (rhHepc). Serum iron levels were analyzed two hours later. […] Statistics represent ANOVA with a Dunnett's post-hoc test comparing all groups against the saline control.

[2] = target: T3, E. coli-derived human hepcidin; test: Biacore concurrent binding to hepcidin captured on antibody 1S1 surface (sandwich pairing); settings: 20 nM hepcidin on 1S1 surface, then 50 nM antibody
Method: Using Biacore analysis, a surface coated with antibody 1S1 was tested for the concurrent binding of hepcidin and another antibody (FIG. 28). Immobilization of anti-Hepc antibody 1S1 to the sensor chip surface was performed according to manufacturer's instructions using a continuous flow of 0.005% P-20/PBS buffer. Briefly, carboxyl groups on the sensor chip surfaces were activated by injecting 60 μL of a mixture containing 0.2 M N-ethyl-N′-(dimethylaminopropyl)carbodiimide (EDC) and 0.05 M N-hydroxysuccinimide (NHS). This was followed by injecting 1S1 diluted in 10 mM acetate, pH 4.0 at concentrations between 20 μg/mL. Excess reactive groups on the surfaces were deactivated by injecting 60 μL of 1 M ethanolamine. Final immobilized levels were 5,000-6,000 resonance units (RU) for the Ab 1S1 surface. A blank, mock-coupled reference surface was also prepared on the sensor chip. 20 nM E. coli-derived human hepcidin was injected over and bound to the 1S1 antibody surface. Then 50 nM antibody 2.7, 23F11, 26F11, and 1S1 were injected over the hepcidin/1S1 surface. After the antibody injection, the surfaces were regenerated by injecting 30 μL 10 mM HCl pH 2.0.

Row | Molecule | iron retention (ferritin) [1] | also measured
1 | urinary hepcidin: Human hepcidin isolated from urine of sepsis patients | increase in iron retention | –
2 | rhHepc: E. coli-derived recombinant human Hepcidin | – | serum iron levels after hepcidin injection (human hepcidin): hypoferremia
3 | Antibody 26F11: human antibody from Xenomouse, SEQ ID NOs: 187-196 (antibody) heavy: QVQLVESGGGVVQPGRSLRLSCAASGFTFSNYGMHWVRQAPGKGLEWVAVIWYVGSNKYYADSVKGRFTISRDNSKNTLYLQMNSLRAEDTAVYYCARAQEGMAPDAFDIWGQGTMVTVSSASTKGPSVFPLAPCSRSTSESTAALGCLVKDYFPEPVTVSWNSGALTSGVHTFPAVLQSSGLYSLSSVVTVPSSNFGTQTYTCNVDHKPSNTKVDKTVERKCCVECPPCPAPPVAGPSVFLFPPKPKDTLMISRTPEVTCVVVDVSHEDPEVQFNWYVDGVEVHNAKTKPREEQFNSTFRVVSVLTVVHQDWLNGKEYKCKVSNKGLPAPIEKTISKTKGQPREPQVYTLPPSREEMTKNQVSLTCLVKGFYPSDIAVEWESNGQPENNYKTTPPMLDSDGSFFLYSKLTVDKSRWQQGNVFSCSVMHEALHNHYTQKSLSLSPGK light: SYELTQPPSVSVSPGQTASITCSGDKMGERYACWYQQKPGQSPILVIYQDTKRPSGIPERFSGSNSGNTATLTISGTQAMDEADYYCQAWYSSTNVVFGGGTKLTVLGQPKAAPSVTLFPPSSEELQANKATLVCLISDFYPGAVTVAWKADSSPVKAGVETTTPSKQSNNKYAASSYLSLTPEQWKSHRSYSCQVTHEGSTVEKTVAPTECS | – | ability to bind hepcidin concurrently with 1S1 (sandwich pair) [2]: markedly lower ability to bind to hepcidin concurrently with 1S1

More lines, main results first:

Row | iron retention (ferritin) [1] | Molecule | also measured
4 | increase in iron retention | hydrogen-DTHFPICIFCCGCCHRSKCGMCCKT-free acid [synthetic hepcidin] | –
5 | increase in iron retention | recombinant hepcidin: human hepcidin produced recombinantly according to Examples 2 and 3 (CHO- or E. coli-derived) | –
